The results in this text go back to publication PMC4919518.

The target in one data set is T1, RsAgo delL777 (Rhodobacter sphaeroides (ATCC 17025D-5), UniProt A4WYU7 1-776, del777-777).
T1 sequence: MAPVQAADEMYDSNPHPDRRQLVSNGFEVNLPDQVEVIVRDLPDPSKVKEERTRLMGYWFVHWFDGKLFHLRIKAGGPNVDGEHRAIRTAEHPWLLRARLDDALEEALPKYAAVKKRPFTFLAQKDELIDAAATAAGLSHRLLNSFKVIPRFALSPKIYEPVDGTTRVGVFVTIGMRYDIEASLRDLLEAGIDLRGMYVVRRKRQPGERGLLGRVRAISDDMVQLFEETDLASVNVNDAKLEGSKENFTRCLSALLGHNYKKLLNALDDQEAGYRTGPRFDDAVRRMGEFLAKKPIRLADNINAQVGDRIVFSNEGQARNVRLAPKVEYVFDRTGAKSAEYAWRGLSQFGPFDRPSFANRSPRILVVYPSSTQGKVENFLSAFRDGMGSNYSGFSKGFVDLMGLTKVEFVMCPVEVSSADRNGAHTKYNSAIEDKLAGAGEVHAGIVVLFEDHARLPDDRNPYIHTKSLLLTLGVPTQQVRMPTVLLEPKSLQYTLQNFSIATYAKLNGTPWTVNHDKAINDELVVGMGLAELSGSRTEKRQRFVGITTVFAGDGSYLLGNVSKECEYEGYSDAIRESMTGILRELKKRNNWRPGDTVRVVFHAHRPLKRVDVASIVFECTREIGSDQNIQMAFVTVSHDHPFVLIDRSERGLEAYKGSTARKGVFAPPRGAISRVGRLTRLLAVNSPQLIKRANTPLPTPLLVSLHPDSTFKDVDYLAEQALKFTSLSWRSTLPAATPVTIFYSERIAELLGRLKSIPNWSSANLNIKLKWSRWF
The experiment in a line: fluorescence polarization; 5 mM Mg2+; FP: 20 mM HEPES-KOH pH 7.5, 200 mM NaCl, 5 mM MgCl2, 0.01 mg/ml E. coli total tRNA, 0.01% NP-40, 10 pM probe, 25 C; EMSA: 20 mM HEPES-KOH pH 7.5, 200 mM NaCl, 5.

Another data set addresses T2, RsAgo R481A/T484A (Rhodobacter sphaeroides (ATCC 17025D-5), UniProt A4WYU7 1-777, R481A;T484A).
T2 sequence: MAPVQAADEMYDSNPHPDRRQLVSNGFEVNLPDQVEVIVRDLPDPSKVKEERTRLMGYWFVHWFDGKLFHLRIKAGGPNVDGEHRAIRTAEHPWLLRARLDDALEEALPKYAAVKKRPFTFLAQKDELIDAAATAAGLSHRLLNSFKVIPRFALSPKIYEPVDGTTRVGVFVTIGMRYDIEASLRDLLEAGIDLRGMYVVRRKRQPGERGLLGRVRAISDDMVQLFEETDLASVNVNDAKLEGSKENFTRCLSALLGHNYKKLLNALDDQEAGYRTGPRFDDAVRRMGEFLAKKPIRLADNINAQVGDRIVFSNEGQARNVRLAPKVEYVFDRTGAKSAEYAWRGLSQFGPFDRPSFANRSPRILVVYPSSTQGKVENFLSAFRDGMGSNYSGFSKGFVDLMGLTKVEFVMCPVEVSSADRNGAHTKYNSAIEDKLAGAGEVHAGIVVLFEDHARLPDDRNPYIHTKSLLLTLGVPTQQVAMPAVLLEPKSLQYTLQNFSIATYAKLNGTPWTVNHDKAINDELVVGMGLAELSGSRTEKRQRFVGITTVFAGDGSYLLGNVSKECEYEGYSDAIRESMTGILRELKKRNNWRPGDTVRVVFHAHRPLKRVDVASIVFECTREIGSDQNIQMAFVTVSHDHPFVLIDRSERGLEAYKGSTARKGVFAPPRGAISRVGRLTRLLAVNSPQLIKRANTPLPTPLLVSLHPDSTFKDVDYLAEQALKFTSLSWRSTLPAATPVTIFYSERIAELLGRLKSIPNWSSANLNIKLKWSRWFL
The description is as above.

The target of another data set is T3, RsAgo delP45-W63 (Rhodobacter sphaeroides (ATCC 17025D-5), UniProt A4WYU7 1-777, del45-63).
T3 sequence: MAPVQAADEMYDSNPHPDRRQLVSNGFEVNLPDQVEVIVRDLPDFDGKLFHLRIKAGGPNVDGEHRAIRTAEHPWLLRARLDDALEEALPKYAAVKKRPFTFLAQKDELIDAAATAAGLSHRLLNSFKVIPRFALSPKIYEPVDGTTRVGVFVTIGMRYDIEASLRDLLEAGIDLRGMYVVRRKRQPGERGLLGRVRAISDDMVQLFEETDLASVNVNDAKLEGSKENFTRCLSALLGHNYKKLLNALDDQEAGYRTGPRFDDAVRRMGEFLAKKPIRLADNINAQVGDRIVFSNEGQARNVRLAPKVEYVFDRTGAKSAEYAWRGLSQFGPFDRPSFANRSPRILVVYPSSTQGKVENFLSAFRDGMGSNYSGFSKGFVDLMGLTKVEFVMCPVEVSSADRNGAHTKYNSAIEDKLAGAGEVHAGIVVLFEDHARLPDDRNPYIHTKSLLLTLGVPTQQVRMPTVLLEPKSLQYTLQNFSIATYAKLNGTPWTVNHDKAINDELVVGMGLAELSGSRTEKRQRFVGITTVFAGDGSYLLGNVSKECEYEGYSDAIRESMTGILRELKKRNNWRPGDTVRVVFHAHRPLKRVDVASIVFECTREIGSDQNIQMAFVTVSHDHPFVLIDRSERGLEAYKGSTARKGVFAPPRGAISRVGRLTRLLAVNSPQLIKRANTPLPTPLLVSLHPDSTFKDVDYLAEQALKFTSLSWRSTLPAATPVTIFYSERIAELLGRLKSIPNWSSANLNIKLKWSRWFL
The experiment in a line: fluorescence polarization; 5 mM Mg2+; same binding capacity as WT; FP: 20 mM HEPES-KOH pH 7.5, 200 mM NaCl, 5 mM MgCl2, 0.01 mg/ml E. coli total tRNA, 0.01% NP-40, 10 pM probe, 25 C; EMSA: 20 mM HEPES-KOH pH 7.5, 200 mM NaCl, 5.

By Kd is commonly meant the constant that tells how readily two partners part at equilibrium. High values mean lower affinity, low ones higher affinity.

B1: 5'P-RNA (5'U-RNA), FAM (ssRNA)
RNA: UUACAACCUACUACCUCG
modifications: 5'-phosphate
As to B1, the Kd with RsAgo delL777 came out at 38.7 ± 2.1 nM; with RsAgo R481A/T484A, 718 ± 36 nM. The binding result with RsAgo delP45-W63 is “binds”.
